Results: patent US20250066451A1

Legend:
[1] = biological target: IL-1R-I on cells (TF-1 cells, NHDF cells, human whole blood) (human) (UniProt P14778); experiment: cell-based or functional assay
[2] = biological target: human IL-1R-I on Normal Human Dermal Fibroblasts (NHDF) cells (human) (UniProt P14778); experiment: cell-based or functional assay
human IL-1R-I on Normal Human Dermal Fibroblasts (NHDF) cells (human), sequence (P14778 18-569): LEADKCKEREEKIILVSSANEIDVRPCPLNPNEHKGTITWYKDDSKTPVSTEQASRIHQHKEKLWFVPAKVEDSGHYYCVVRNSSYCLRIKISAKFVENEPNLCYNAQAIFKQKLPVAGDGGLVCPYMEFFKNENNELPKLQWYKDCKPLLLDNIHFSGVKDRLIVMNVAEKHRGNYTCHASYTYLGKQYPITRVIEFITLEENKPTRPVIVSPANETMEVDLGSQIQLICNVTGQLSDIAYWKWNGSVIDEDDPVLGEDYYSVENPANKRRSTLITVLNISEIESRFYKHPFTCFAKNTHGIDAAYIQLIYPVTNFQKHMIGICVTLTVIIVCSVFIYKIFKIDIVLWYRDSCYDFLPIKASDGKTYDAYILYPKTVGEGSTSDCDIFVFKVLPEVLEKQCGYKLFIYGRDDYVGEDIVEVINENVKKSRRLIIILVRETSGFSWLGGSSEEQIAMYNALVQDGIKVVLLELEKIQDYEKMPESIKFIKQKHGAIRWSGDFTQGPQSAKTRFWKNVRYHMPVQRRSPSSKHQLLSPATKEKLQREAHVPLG

IL-1R-I on cells (TF-1 cells, NHDF cells, human whole blood) (human), sequence (P14778 18-569): as above

Row | IC50, inhibition of IL-1B induced proliferation of TF-1 cells [1] [pM] | median IC50, IL-1B induced IL-6 release in human whole blood [1] [pM] | median IC50, IL-1B induced IL-6 release in human whole blood (legend of FIG. 3) [1] [pM] | IC50 (pM), inhibition of IL-1B induced IL-6 release in NHDF cells [2] [pM] | Substance
1 | 50 | 310 | 300 | – | anakinra (Kineret, Sobi) (from UniProt P18510 26-177) (ligand)
2 | – | – | – | 70 | anakinra (from UniProt P18510 26-177) (ligand)
